According to paper PMC10172501, “Heparanase-2 protein and peptides have a protective effect on experimental glomerulonephritis and diabetic nephropathy” (Frontiers in Pharmacology, 2023):
Entries after “also recorded” stand apart in the source; their conditions may differ. One block for each molecule: values may come before it.

How the values were obtained:
[1] = target: T1, recombinant active human HPSE1 (Homo sapiens, UniProt Q9Y251); test: HPSE1 activity assay (inhibition of HPSE1 activity; commercial kit and in-house HS-coated plate assay); format: biochemical; settings: for inhibition of HPSE1 activity, first screening experiment of all 30 HPSE2 peptides: data not shown, recombinant HPSE1
T1 construct: recombinant active human HPSE1; purchased Bio-techne 7570-GH-005
T1 sequence (Q9Y251 158-543 limits assumed): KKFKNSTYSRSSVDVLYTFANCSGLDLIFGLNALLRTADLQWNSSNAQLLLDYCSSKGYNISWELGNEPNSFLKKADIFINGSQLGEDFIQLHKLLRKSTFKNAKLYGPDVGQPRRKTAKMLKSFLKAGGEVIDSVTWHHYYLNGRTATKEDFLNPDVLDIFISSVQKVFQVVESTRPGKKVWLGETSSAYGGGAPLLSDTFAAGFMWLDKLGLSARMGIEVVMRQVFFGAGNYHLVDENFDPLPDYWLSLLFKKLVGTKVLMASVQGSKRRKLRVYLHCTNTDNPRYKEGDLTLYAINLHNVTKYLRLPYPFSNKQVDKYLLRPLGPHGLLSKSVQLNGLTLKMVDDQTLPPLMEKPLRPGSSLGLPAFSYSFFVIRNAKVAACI
T1 sequence (Q9Y251 36-109 limits assumed): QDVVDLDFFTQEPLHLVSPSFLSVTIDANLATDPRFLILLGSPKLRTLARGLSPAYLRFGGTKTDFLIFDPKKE
Description: The inhibition of HPSE1 activity by HPSE2 protein and peptides was determined by the commercially available HPSE1 assay kit and an in-house developed HPSE1 activity assay, which was optimized by the use of recombinant active human HPSE1 (Bio-techne, Abingdon, United Kingdom, Cat#7570-GH-005). The in-house developed activity assay was performed as described previously ([Buijsers et al., 2020]). In short, Nunc maxisorp flat bottom 96 plates (Thermo scientific, Breda, Netherlands) were coated with 10 μg/mL heparan sulfate from bovine kidney (HSBK) (Sigma-Aldrich, Zwijndrecht, Netherlands) in optimized HS coating buffer, overnight in a humidified chamber at RT. Subsequently, plates were blocked for minimal 2 h with 1% bacto-gelatin (Difco laboratories, Detroit, Michigan, United States) in PBS at RT whereupon HPSE1 inhibitors were added to the plate with a standard amount of recombinant HPSE1 in HPSE1 buffer. Remaining HSBK was detected with primary mouse […] IgM HS antibody JM403 (Amsbio, Abingdon, United Kingdom, cat. No. #370730-S, RRID: AB_10890960, 1 μg/mL in PBST) for 1 h at RT. Subsequently, plates were incubated with secondary goat anti-mouse IgM HRP antibody (Southern Biotech, Uden, Netherlands, cat. No. #1020–05, RRID: AB_2794201, dilution 1:10,000 in PBST) for 1 h at RT. Finally, 3,3′,5,5′-tetramethylbenzidine (TMB) substrate (Invitrogen, Breda, Netherlands) was added and reaction was stopped by addition of 2 M sulfuric acid, and absorbance was measured at 450 nm.

[2] = system: HPSE1; settings: ref Simeonovic et al., 2013; cited from earlier work
Text: Other HPSE1 inhibitors have been tested both in vitro and in vivo for their application in glomerular diseases as well. Administration of HPSE1 substrates, such as soluble HS, heparin, and low-molecular-weight heparins, all comprise the potential to reduce albuminuria. One example of such class of drugs is sulodexide, which is a highly purified mixture that consists for 80% of low-molecular-weight heparin and for 20% of dermatan sulfate ([Poplawska et al., 1997]).

[3] = system: mice induced with LPS; settings: LPS co-injected with protein compared to LPS alone, upon 2 h; ref Kiyan et al., 2019; cited from earlier work
Description: Since HPSE1 is also involved in inflammation ([Goodall et al., 2014]; [Lever et al., 2014]), the increased HPSE1 and TNF-α expression might be prevented if HPSE2 is administered concomitant with LPS at induction of experimental glomerulonephritis. This effect has been shown previously by Kiyan et al. in the CLP sepsis mouse model. They reported decreased plasma levels of IL-6 and TNF-α in mice induced with LPS co-injected with full-length HPSE2 protein compared to LPS alone already upon 2 h. Unfortunately, no assessment of cytokine or HPSE1 mRNA expression in the renal cortex or other tissues ...

[4] = system: STZ-induced diabetic nephropathy in wt DBA/2J mice; test: Streptozotocin (STZ)-induced type 1 diabetic nephropathy mouse model; format: in vivo
Description: Experimental streptozotocin (STZ)-induced type 1 diabetes was induced in six-to eight-week-old wt DBA/2J mice (Charles River, Germany). Mice were first fasted for 4 h whereafter the mice were injected i. p. with 50 mg/kg STZ (Sigma-Aldrich Chemie, Zwijndrecht, Netherlands) in 250 mM sodium citrate buffer (pH 4.5), whereas controls were injected with sodium citrate buffer alone for 5 consecutive days. Blood glucose levels were measured twice a week using the ACCU-CHEK Aviva Blood Glucose Meter (Roche Diagnostics, Almere, Netherlands) to monitor that blood glucose levels would not raise above 25 mmol/L. Mice were implanted under the skin half an insulin pellet (LinShin Canada, Toronto, Canada) when their blood glucose level did raise above 25 mmol/L. The mice were treated with HPSE2 protein via continuous s. c infusion with an osmotic mini pump 8 weeks after the final injection with STZ for a duration of 4 weeks. Mice were sacrificed 12 weeks after induction of diabetes.
(§1) Kidneys were collected and snap frozen in liquid nitrogen and urine was collected after 18 h housing in metabolic cages upon termination. Urinary albumin was measured by radial immunodiffusion (Mancini) as described previously ([Garsen et al., 2016a]). Blood urea nitrogen (BUN) and urinary/plasma creatinine concentrations were determined routinely in our clinical diagnostic facility.
(§2) RNA was isolated from the kidney cortex using RNeasy mini kit (Qiagen) and 1 µg of RNA was reverse transcribed into cDNA using the Transcription First Strand cDNA synthesis kit (Roche, Woerden, Netherlands) according to manufacturer’s instructions. Quantitative PCR was performed with SYBR Green (Roche, Woerden, Netherlands) on a CFX 96 C1000 Thermal Cycler (Bio-rad, Lunteren, Netherlands) to determine expression levels. Data was analysed using glyceraldehyde-3-phosphate dehydrogenase (GAPDH) as housekeeping gene and by making use of the delta-delta CT method.

[5] = system: LPS-induced glomerulonephritis in wt C57Bl/6J mice; test: LPS-induced glomerulonephritis mouse model; format: in vivo; settings: for cortical IL-6 mRNA expression: Figure 5F, IL-6 not detectable in control mice
Description: Experimental LPS-induced glomerulonephritis was induced in eight-to twelve-week-old wt C57Bl/6J mice by an i. p. injection with 80 µg LPS (O111:B4; Sigma-Aldrich Chemie, Zwijndrecht, Netherlands) as described previously ([Garsen et al., 2016a]). The mice were treated with heparanase 2 (HPSE2) protein and an equal mix of HPSE2 peptides (Thermo Fisher Scientific, Breda, Netherlands) 381–410, 391–420, and 401–430, amino acids respectively, via repeated i. v injection with 12 h intervals starting 6 h after LPS injection. Mice were sacrificed 48 h after LPS injection.
as §1, §2

inhibition of HPSE1 activity, first screening experiment of all 30 HPSE2 peptides ([1]; listed as 401–430): most effective
Molecule: FLWLNTLGMLANQGIDVVIRHSFFDHGYNH [HPSE2 peptide 401–430, HPSE2-derived peptide, AA region 401–430]
inhibition of HPSE1 activity, first screening experiment of all 30 HPSE2 peptides [1]: showed great promise as inhibitor of HPSE1 activity

Molecule: PI-88
HPSE1 inhibition in animal models for glomerular diseases, such as DN [2]: effective HPSE1 inhibitor

Molecule: GVVTTSAGGTNNLSDSYAAGFLWLNTLGML [HPSE2 peptide 381–410, HPSE2-derived peptide, AA region 381–410]
inhibition of HPSE1 activity, first screening experiment of all 30 HPSE2 peptides [1]: showed great promise as inhibitor of HPSE1 activity; also recorded: most effective

B1: HPSE2 protein: His-tagged mouse heparanase-2 protein produced by in vitro translation in HeLa lysate; b60 values from Kiyan et al. concern their protein (protein, UniProt B2RY83 1-592, looked up)
chain: MRVLCAFPEAMASSSSRPPSCLALVALFLALLLHLSLSFHAGNRRPLPVDRATGLKEKTLILLDVSTKNPVRTVNENFLSLQLDPSIIHDGWLDFLSSKRLVTLARGLSPAFLRFGGKRTDFLQFQNLRNPAKSRGGPGPDYYLKNYEDDIVRSDVALDKQKGCKIAQHPDVMLELQREKASQMHLVLLKEQYSNTYSNLILTARSLDKLYNFADCSGLHLIFALNALRRNPNNSWNSSSALSLLKYSASKKYNISWELGNEPNNYRSIHGRAVNGSQLGKDYIQLKSLLQPIRVYSRASLYGPNIGRPRKNVIALLDGFMKVAGSTVDAVTWQHCYIDGRVVKVMDFLKTRLLDTLSDQIRKIQKVVNTYTPGKKIWLEGVVTTSAGGTNNLSDSYAAGFLWLNTLGMLANQGIDVVIRHSFFDHGYNHLVDQNFNPLPDYWLSLLYKRLIGPKVLAVHVAGLQRKPRPGRVIRDKLRIYAHCTNHHNHNYVRGSITLFIINLHRSRKKIKLAGTLRDKLVHQYLLQPYGQEGLKSKSVQLNGQPLVMVDDGTLPELKPRPLRAGRTLVIPPVTMGFYVVKNVNALACRYR
modifications: full-length His tag
notes: His-tagged mouse heparanase-2 protein produced by in vitro translation in HeLa lysate; b60 values from Kiyan et al. concern their protein
dose response inhibition of recombinant human HPSE1 ([1]; Figure 4, HS from bovine kidney coated plates, remaining HS detected with JM403, absorbance 450 nm): dose-dependent inhibition of HPSE1 activity
plasma levels of IL-6 [3]: decreased
plasma levels of TNF-α [3]: decreased
urinary albumin creatinine ratio ([4]; STZ 50 mg/kg i.p. 5 days, continuous s.c. infusion by osmotic mini pump from 8 weeks after STZ for 4 weeks, sacrificed at 12 weeks, n ≥ 5, Figure 6C): significantly ameliorated
cortical HPSE1 mRNA expression ([4]; STZ model, 12 weeks, qPCR, Figure 6D): unaltered
cortical TNF-α mRNA expression ([4]; STZ model, 12 weeks, qPCR, Figure 6E): unaltered
cortical IL-6 mRNA expression ([4]; STZ model, 12 weeks, qPCR, with versus without treatment, Figure 6F): did not show a significant difference
plasma creatinine levels ([5]; 80 µg LPS i.p., repeated i.v. injection at 12 h intervals starting 6 h after LPS, 48 h, n ≥ 4, Figure 5B): significantly ameliorated
urinary albumin creatinine ratio ([5]; 80 µg LPS i.p., repeated i.v. injection at 12 h intervals starting 6 h after LPS, 48 h, n ≥ 4, Figure 5C): significantly ameliorated; also recorded: dose response inhibitory effect
blood urea nitrogen (BUN) ([5]; 80 µg LPS i.p., repeated i.v. injection at 12 h intervals starting 6 h after LPS, sacrificed 48 h after LPS, mean ± SEM, n ≥ 4, Figure 5A): significantly ameliorated; also recorded: dose response inhibitory effect
cortical HPSE1 mRNA expression ([5]; LPS model, 2 days, qPCR, GAPDH housekeeping, Figure 5D): unaltered
cortical TNF-α mRNA expression ([5]; LPS model, 2 days, qPCR, Figure 5E): unaltered
cortical IL-6 mRNA expression ([5]; LPS model, 2 days, qPCR): decrease
cortical IL-6 mRNA expression ([5]; LPS model, 2 days, qPCR, listed as HPSE2): near-significantly decreased
